The supplement of paper PMC10126150
± gives the standard deviation of the averaged measurements.

Test system: ATP
Experiment: switch fluorescence ratio, 500 uM ATP over buffer (Cy3 cluster intensity, sum of 5 cycles each) (fold (ratio)); higher = stronger signal-on switching upon ATP binding; sequences stand for … in TCGTCGGCAGCGTCAGATGTGTATAAGAGACAGTTTTTTTTTTTTTTTTTTTTTTTTT…TC
Settings: aptamer strand: ATP DNA aptamer (quencher-CACCTGGGGGAGTATTGCGGAGGAAGG + anchor), 100 nM annealed; ATP concentration: 500 uM
Procedure, shortened: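 Clusters carrying Cy3-labelled switching strands on a modified Illumina MiSeq flow-cell were annealed to 100 nM quencher-labelled ATP aptamer and imaged in selection buffer. They were imaged again after 15 min with 500 uM ATP at 22 °C, over five buffer/ATP cycles with NaOH stripping and re-annealing in between. For each cluster, the fluorescence ratio is the summed Cy3 intensity of the target cycles divided by that of the buffer cycles, averaged per switch-domain sequence. Clusters outside 100-1000 RFU were left out.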
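Further: ATP exposure 15 min at 22 °C before imaging.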

| Sequence | switch fluorescence ratio |
| --- | --- |
| TGAAGTTGG | 1.01 ± 0.019 |
| GCGCGTATAT | 1.07 ± 0.044 |
| ATATTTTGTG | 0.982 ± 0.026 |
| TTTAGAGTTC | 0.997 ± 0.021 |
| CGATTCTGAG | 1 ± 0.024 |
| AATAGAGGTT | 0.965 ± 0.02 |
| AGCCCGTTTG | 0.964 ± 0.053 |
| AGAAAATTTC | 1.04 ± 0.051 |
| TAACGGGGGA | 1.01 ± 0.062 |
| TTCACCGGGA | 0.9932 ± 0.007 |
| TTAAGGCCAC | 1.034 ± 0.0055 |
| TAAGGCTGTT | 0.953 ± 0.023 |
| CGGATCTCGC | 1.03 ± 0.01 |
| AATAGCCGGG | 0.97 ± 0.066 |
| AAGGGGAAGT | 0.987 ± 0.038 |
| ACGTTACTAC | 1.52 ± 0.03 |
| AATAAATGCT | 0.99 ± 0.036 |
| CCTATTTATT | 1.01 ± 0.02 |
| ATGTTGAACT | 0.99 ± 0.002 |
| TAGTGGACGG | 0.986 ± 0.034 |
| GCTGGTTTCG | 1.033 ± 0.0054 |
| GGTTTCGCTT | 1.03 ± 0.046 |
| TTATCTACGT | 1.07 ± 0.035 |

| Sequence | switch fluorescence ratio |
| --- | --- |
| TCCTCATGTT | 1.07 ± 0.032 |
| TTCTGGTATA | 1.02 ± 0.024 |
| TGGAGGGAAG | 1.03 ± 0.059 |
| TGTGGTATTA | 0.976 ± 0.036 |
| GGGGGCCCTC | 0.985 ± 0.01 |
| CCTGTTCCGA | 1.19 ± 0.028 |
| ATTGGGGGCC | 0.967 ± 0.028 |
| AAAAAATAGT | 1 ± 0.019 |
| GGTTGCAAGA | 1.01 ± 0.015 |
| GCATTAGTTT | 1.04 ± 0.012 |
| ATTTTTCTGA | 1 ± 0.019 |
| TATCGTGAGT | 0.9822 ± 0.0071 |
| ACCCGGGATT | 1.13 ± 0.098 |
| TGGGGTTGCA | 0.99 ± 0.015 |
| GGTTGGTGGG | 0.969 ± 0.044 |
| TATTTTTTGG | 1.02 ± 0.033 |
| ATATCGGTAG | 0.999 ± 0.014 |
| TTGGGATTTT | 1.01 ± 0.033 |
| CTCGGTGAGG | 0.991 ± 0.029 |
| TTTAGGACTT | 0.994 ± 0.021 |
| TTTTAGAATG | 1 ± 0.061 |
| ACATTTAATT | 0.983 ± 0.013 |
| CCGTTGGATT | 0.983 ± 0.01 |

| Sequence | switch fluorescence ratio |
| --- | --- |
| AAAATGACGT | 1.04 ± 0.049 |
| GGAAACGGGG | 1.001 ± 0.0064 |
| CGGGTGAATT | 1.01 ± 0.071 |
| CACGACATTG | 1.02 ± 0.018 |
| ACCGTTTTTA | 1.08 ± 0.097 |
| AAATCGGTGG | 1.01 ± 0.046 |
| ATTTTTGTCT | 0.983 ± 0.06 |
| AAGGCTTTTT | 0.9935 ± 0.0077 |
| TGGGCATTAT | 1.04 ± 0.07 |
| TCTTGTATTC | 0.9938 ± 0.0094 |
| AAATGTGGGG | 0.976 ± 0.049 |
| ATTGGGGTGT | 1.01 ± 0.022 |
| TGGCTAAGGT | 1.023 ± 0.0017 |
| GGGACAGACC | 1.09 ± 0.024 |
| TTATGAATTT | 0.98 ± 0.026 |
| ATGTAGGGTG | 1.008 ± 0.0039 |
| CCCTTGGATA | 0.993 ± 0.021 |
| TTATTGGGGA | 0.974 ± 0.024 |
| CGGTGACGTT | 1.01 ± 0.028 |
| AGTCTAAGGG | 0.993 ± 0.013 |
| GCCGGGAGGG | 0.985 ± 0.025 |
| AGTGTAGGGG | 1.02 ± 0.028 |
| GCTTTGGGCA | 0.9992 ± 0.0067 |

| Sequence | switch fluorescence ratio |
| --- | --- |
| CTGGATTAAT | 1.02 ± 0.04 |
| TTCGGCGGTG | 0.98 ± 0.045 |
| TATTATGGAG | 0.988 ± 0.021 |
| CGGGTAATTT | 1.03 ± 0.019 |
| TTGAGTGTGC | 1.02 ± 0.023 |
| GTTGGGTATC | 0.998 ± 0.023 |
| AATCTTGGGA | 0.977 ± 0.028 |
| CAGGGGGACG | 0.923 ± 0.063 |
| GCTGGAACTG | 1.06 ± 0.14 |
| TTGTCGGTCT | 0.972 ± 0.018 |
| GTAGTTATGG | 1.04 ± 0.03 |
| GGATCGGATT | 0.979 ± 0.023 |
| TGGGGTGGCG | 1.01 ± 0.067 |
| GTTAACAGTT | 0.989 ± 0.027 |
| TTTAAAGATC | 1 ± 0.021 |
| GCTTTTACGG | 1.07 ± 0.016 |
| CATTTAGTTG | 0.985 ± 0.042 |
| TGGTGGAAAC | 0.99116 ± 0.00084 |
| CACATTTTTG | 0.995 ± 0.023 |
| AATGTAGACG | 0.997 ± 0.13 |
| ATAATGTTGT | 0.991 ± 0.031 |
| AGTTTTTCCA | 1.02 ± 0.031 |
| GAATTTTGG | 0.9824 ± 0.0032 |

| Sequence | switch fluorescence ratio |
| --- | --- |
| CAAGTGAGAA | 1.02 ± 0.049 |
| GTTAACGGGT | 0.997 ± 0.02 |
| TTTTTAGAAA | 0.971 ± 0.011 |
| TCGAGGCTGT | 1.18 ± 0.05 |
| CGTCGGTTAG | 1.01 ± 0.015 |
| AATGCACTCG | 1.04 ± 0.05 |
| ATAATGGTC | 1.003 ± 0.008 |
| GTTAGGGGCA | 1 ± 0.072 |
| GGCACTGGTA | 0.981 ± 0.022 |
| GCGGAATAGG | 1.038 ± 0.0062 |
| GGCAATGAAG | 1.03 ± 0.049 |
| GGCTTAGTTT | 1.01 ± 0.0055 |
| TAACGGCATT | 1.08 ± 0.037 |
| CAGAGATCTG | 0.9732 ± 0.0053 |
| TAGTCATGAG | 0.981 ± 0.017 |
| TTTACTTAGT | 1.02 ± 0.018 |
| GGTTTAATAG | 0.986 ± 0.026 |
| TCCCCCACAG | 2.05 ± 0.22 |
| TTAGCTATTA | 0.9858 ± 0.0043 |
| CAGGTCATGC | 1.02 ± 0.058 |
| CGTACTAAAA | 1.06 ± 0.036 |
| GAAGGAGCAG | 0.944 ± 0.029 |
| CTGGTGAGTT | 0.9789 ± 0.0012 |

| Sequence | switch fluorescence ratio |
| --- | --- |
| CCATGTGTGT | 1.0078 ± 7.5e-05 |
| ATAAGTCTGT | 1.008 ± 0.0073 |
| GTAAGGATGT | 0.988 ± 0.038 |
| GGGTTTAGGT | 0.981 ± 0.011 |
| CATAGGCTAC | 1.6 ± 0.031 |
| TTCCAAATTG | 0.993 ± 0.017 |
| AACGAGGGTC | 1.01 ± 0.049 |
| TTGGGGCGTG | 0.971 ± 0.057 |
| TTGATTTGTC | 0.988 ± 0.011 |
| TTTGCGACGT | 1.02 ± 0.025 |
| GGGGTTTTCT | 1.01 ± 0.016 |
| CGGCGGCTTC | 1.01 ± 0.028 |
| CATATGCTGC | 1.0589 ± 0.00039 |
| TTACTTTGGC | 1 ± 0.022 |
| CGCGAGGGCC | 1.1 ± 0.08 |
| TAACGCCATC | 1.51 ± 0.035 |
| CCAGGCGGGG | 0.9969 ± 0.0046 |
| ATATGAAGAG | 0.99884 ± 9.2e-05 |
| AGATTCAGAA | 0.947 ± 0.037 |
| CCAGTATCTG | 0.998 ± 0.013 |
| TTCAAAGGGT | 1.005 ± 0.0049 |
| CTTATTTGGC | 1.032 ± 0.0017 |
| ACCATTAAAA | 1.004 ± 0.0029 |

| Sequence | switch fluorescence ratio |
| --- | --- |
| CGGGTCTGTG | 0.999 ± 0.018 |
| TGGGAGAGGT | 0.996 ± 0.02 |
| ATACTTAGTG | 0.986 ± 0.019 |
| CGGGGTTCCG | 0.9532 ± 0.0064 |
| CTGGGGGTA | 0.9889 ± 0.0083 |
| TCGGGACATA | 1.02 ± 0.041 |
| GGCGCAGTTC | 1.37 ± 0.077 |
| AGTGTTGTAT | 1.05 ± 0.044 |
| AAGGTCCTCT | 1 ± 0.004 |
| AGCTTAAATT | 0.987 ± 0.018 |
| CATATCTGAT | 1.01 ± 0.041 |
| CGATTACGAT | 1.01 ± 0.03 |
| CAAGTTGACC | 1.01 ± 0.046 |
| TGGACCTTTT | 1.64 ± 0.82 |
| TAAGTGTTGC | 1 ± 0.037 |
| TTAATAACGG | 1.04 ± 0.06 |
| AATTTGAAAG | 1.017 ± 0.01 |
| CGTTATTCAC | 1.03 ± 0.036 |
| TTATAGGGGA | 0.998 ± 0.082 |
